From publication PMC6966814, “Receptor kinase FERONIA regulates flowering time in Arabidopsis”

Experiments:
[1] = molecular target: T1, GST-CCA1 (… CLOCK-ASSOCIATED1) (Arabidopsis thaliana, UniProt P92973 1-608); assay: EMSA; 20 fmol probe, 5 ug protein; EMSA: 100 mM Tris-HCl pH 8.0, 5 mM DTT, 2.5 mM EDTA, 0.25% Triton X-100, 25% glycerin; competitor 15 min then probe 20 min; 4% native PAGE, 0.5x TBE; temperature not stated; details: protein: recombinant; label: FITC on strand 1 (S35; printed after its 3' end); blunt
[2] = molecular target: T1, GST-CCA1 (… CLOCK-ASSOCIATED1); assay: competition (EMSA); 100x unlabeled competitor vs FITC-pFER; did not compete; EMSA: 100 mM Tris-HCl pH 8.0, 5 mM DTT, 2.5 mM EDTA, 0.25% Triton X-100, 25% glycerin; competitor 15 min then probe 20 min; 4% native PAGE, 0.5x TBE; temperature not stated; details: protein: recombinant; label: none; blunt
[3] = molecular target: T1, GST-CCA1 (… CLOCK-ASSOCIATED1); assay: competition (EMSA); 100x unlabeled competitor vs FITC-pFER; EMSA: 100 mM Tris-HCl pH 8.0, 5 mM DTT, 2.5 mM EDTA, 0.25% Triton X-100, 25% glycerin; competitor 15 min then probe 20 min; 4% native PAGE, 0.5x TBE; temperature not stated; details: protein: recombinant; label: none; blunt

T1 sequence (P92973 whole entry): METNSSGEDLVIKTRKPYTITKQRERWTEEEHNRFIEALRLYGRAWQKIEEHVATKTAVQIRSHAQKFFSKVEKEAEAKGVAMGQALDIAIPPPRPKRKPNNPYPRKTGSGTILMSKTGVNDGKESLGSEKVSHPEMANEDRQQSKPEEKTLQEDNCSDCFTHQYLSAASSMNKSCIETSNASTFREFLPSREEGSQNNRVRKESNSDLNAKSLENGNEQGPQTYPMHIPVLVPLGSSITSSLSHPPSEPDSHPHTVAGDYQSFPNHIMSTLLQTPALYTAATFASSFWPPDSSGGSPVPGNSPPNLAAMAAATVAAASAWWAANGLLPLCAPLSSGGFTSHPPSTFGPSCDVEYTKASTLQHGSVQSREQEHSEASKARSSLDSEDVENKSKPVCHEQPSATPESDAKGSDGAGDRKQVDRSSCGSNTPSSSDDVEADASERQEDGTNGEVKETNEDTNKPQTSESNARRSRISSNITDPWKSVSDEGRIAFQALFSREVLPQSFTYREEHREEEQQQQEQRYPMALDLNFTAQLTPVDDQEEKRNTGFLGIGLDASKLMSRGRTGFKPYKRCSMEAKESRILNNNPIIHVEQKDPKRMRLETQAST

B1: pFER probe (EE element), FITC (dsDNA)
DNA 1: TCTCCCCCAAAATATCTCTGTCTTC
DNA 2: GAAGACAGAGATATTTTGGGGGAGA
B1: binds [1].

B2: pFER-Mutant competitor B (AAATATCT to GGGGGGGG) (dsDNA)
DNA 1: TCTCCCCCAGGGGGGGGCTGTCTTC
DNA 2: GAAGACAGCCCCCCCCTGGGGGAGA
B2: no binding [2].

B3: pFER competitor A (unlabeled WT) (dsDNA)
DNA 1: TCTCCCCCAAAATATCTCTGTCTTC
DNA 2: GAAGACAGAGATATTTTGGGGGAGA
B3: binds [3].
